Experimental data as given in patent publication US11613587B2, “Combination therapy of T cell activating bispecific antigen binding molecules and PD-1 axis binding antagonists” (Hoffmann-La Roche Inc., priority 2014, dated 2023).

B1: Mov19: reference human FolR1 binder, control IgG (antibody, V domains shown)
VH: QVQLQQSGAELVKPGASVKISCKASGYSFTGYFMNWVKQSHGKSLEWIGRIHPYDGDTFYNQNFKDKATLTVDKSSNTAHMELLSLTSEDFAVYYCTRYDGSRAMDYWGQGTTVTVSS
VL: DIELTQSPASLAVSLGQRAIISCKASQSVSFAGTSLMHWYHQKPGQQPKLLIYRASNLEAGVPTRFSGSGSKTDFTLNIHPVEEEDAATYYCQQSREYPYTFGGGTKLEIK
B2: 36F2: anti-FolR1 clone from generic multi-framework Fab library (Vk_3_20/VH_1_46) (antibody, V domains shown)
VH: QVQLVQSGAEVKKPGASVKVSCKASGYTFTSYYMHWVRQAPGQGLEWMGIINPSGGSTSYAQKFQGRVTMTHDTSTSTVYMELSSLRSEDTAVYYCARSFFTGFHLDYWGQGTLVTVSS
VL: EIVLTQSPGTLSLSPGERATLSCRASQSVSSSYLAWYQQKPGQAPRLLIYGASSRATGIPDRFSGSGSGTDFTLTISRLEPEDFAVYYCQQYTNEHYYTFGQGTKVEIK

How the values were obtained:
huFolR1-Fc = experiment: Epitope binning (SPR); format: binding, human; conditions: 500 nM huFolR1-Fc, 500 nM binder
Method: 500 nM huFolR1-Fc was then captured for 60 s, followed by 500 nM of the different binders for 30 s. The surface was regenerated with two injections of 10 mM glycine pH 2 for 30 s each.

[1] = system: erythrocytes (CD235a positive); experiment: Binding to erythrocytes (flow cytometry); set-up: species or system human
[2] = system: HEK cells transiently transfected with cyno FolR1; experiment: Cross-reactivity to cyno FolR1 on transfected HEK cells (flow cytometry); format: binding, cynomolgus; conditions: IgG
Source text: FIGS. 4A-B depict graphs summarizing cross-reactivity of FolR1 binders to cyFoLR1. Cross-reactivity of the FolR1 antibodies to cyno FolR1 was addressed on HEK cells transiently transfected with cyFolR1 by flow cytometry.
New FolR1 binders were generated via Phage Display using either a Fab library or a common light chain library using the CD3 light chain. The identified binders were converted into a human IgG1 format and binding to FolR1 high expressing HeLa cells was addressed. As reference molecule the human FolR1 binder Mov19 was included. […] In a next step the selected clones were tested for specificity to human FolR1 by excluding binding to the closely related human FolR2. HEK cells were transiently transfected with either human FolR1 or human FolR2 to address specificity. […] Therefore these clones were excluded from further characterization. In parallel cross-reactivity of the FolR1 clones to cyno FolR1 was addressed by performing binding studies to HEK cells transiently transfected with cyno FolR1. […] Subsequently three human FolR1 specific cyno cross-reactive binders were converted into TCB format and tested for induction of T cell killing and T cell activation. […] As reference molecule Mov19 FolR1 TCB was included in all studies. These FolR1 TCBs were then used to compare induction of internalization after binding to FolR1 on HeLa cells.

human FolR1 = target: T1, human FolR1 (Homo sapiens, UniProt P15328); experiment: SPR single injections of anti-FolR1 IgGs (Biacore T200); format: binding
T1 construct: the extracellular domain of the antigen linked to the hinge region of Fc-knob which is co-expressed with an Fc-hole molecule; made in house; host or cells: HEK293 EBNA
Source text: The immobilization level was about 300-400 RU.

Molecule | binding of analyte in solution to huFolR1 captured on immobilized 16D5 TCB (huFolR1-Fc) | binding of analyte in solution to huFolR1 captured on immobilized 21A5 TCB (huFolR1-Fc) | binding of analyte in solution to huFolR1 captured on immobilized Mov19 IgG (huFolR1-Fc) | binding to erythrocytes [1] | binding to cyno FolR1 [2] | dissociation from huFolR1 (human FolR1)
B1 | + (+means binding) | + (+means binding) | − | could not observe any specific binding |  | 
B2 | + (+means binding) | + (+means binding) | − |  | bind comparably well human and cyno FoLR1 | dissociated rapidly from huFolR1
